Experiments:
Conditions in all cases: pH 7; 25 °C
[1] = substrate: p-NP-C4
[2] = substrate: triacetin
[3] = substrate: tributyrin
[4] = substrate: tripropionin
[5] = substrate: vinyl acetate
[6] = substrate: vinyl butyrate
[7] = substrate: vinyl laurate
[8] = substrate: vinyl propionate

Row | Protein | Km [1] | kcat [1] | kcat/Km [1] | Km [3] | kcat [3] | kcat/Km [3] | Km [4] | kcat [4] | kcat/Km [4] | Km [5] | kcat [5] | kcat/Km [5] | Km [6] | kcat [6] | kcat/Km [6] | Km [7] | kcat [7] | kcat/Km [7] | Km [8] | kcat [8] | also measured
1 | unnamed (protein) MAKKDEHLRKPEWLKIKLNTNENYTGLKKLMRENNLHTVCEEAKCPNIHECWAVRRTATFMILGSVCTRACRFCAVKTGLPTELDLQEPERVADSVALMNLKHAVITAVARDDQKDGGAGIFAETVRAIRRKSPFTTIEVLPSDMGGNYDNLKTLMDTRPDILNHNIETVRRLTPRVRARATYDRSLEFLRRAKEMQPDIPTKSSIMIGLGETKEEIIEVMDDLLANNVDIMAIGQYLQPTKKHLKVQKYYHPDEFAELKEIAMQKGFSHCEAGPLVRSSYHADEQVNEASKKRQAQA | 0.75 mM | 50 s⁻¹ | 66700 M⁻¹ s⁻¹ | 0.4 mM | 100 s⁻¹ | 250000 M⁻¹ s⁻¹ | 12 mM | 150 s⁻¹ | 12500 M⁻¹ s⁻¹ | 280 mM | 100 s⁻¹ | 357 M⁻¹ s⁻¹ | 40 mM | 635 s⁻¹ | 15900 M⁻¹ s⁻¹ | 5 mM | 145 s⁻¹ | 29000 M⁻¹ s⁻¹ | 75 mM | 1940 s⁻¹ | Km [2]: 110 mM; kcat [2]: 120 s⁻¹; kcat/Km [2]: 1090 M⁻¹ s⁻¹; kcat/Km [8]: 25800 M⁻¹ s⁻¹
2 | unnamed (protein) MRSSLVLFFVSAWTALASPIRREVSQDLFNQFNLFAQYSAAAYCGKNNDAPAGTNITCTGNACPEVEKADATFLYSFEDSGVGDVTGFLALDNTNKLIVLSFRGSRSIENWIGNLNFDLKEINDICSGCRGHDGFTSSWRSVADTLRQKVEDAVREHPDYRVVFTGHSLGGALATVAGADLRGNGYDIDVFSYGAPRVGNRAFAEFLTVQTGGTLYRITHTNDIVPRLPPREFGYSHSSPEYWIKSGTLVPVTRNDIVKIEGIDATGGNNQPNIPDIPAHLWYFGLIGTCL | 2.5 mM | 580 s⁻¹ | 232000 M⁻¹ s⁻¹ | 0.5 mM | 2250 s⁻¹ | 4.5e+06 M⁻¹ s⁻¹ | 14 mM | 225 s⁻¹ | 16100 M⁻¹ s⁻¹ | 280 mM | 455 s⁻¹ | 1630 M⁻¹ s⁻¹ | 20 mM | 2600 s⁻¹ | 130000 M⁻¹ s⁻¹ | 4 mM | 12000 s⁻¹ | 3e+06 M⁻¹ s⁻¹ | 100 mM | 1950 s⁻¹ | kcat/Km [8]: 19500 M⁻¹ s⁻¹
3 | unnamed (protein) AEVCYSHLGCFSDEKPWAGTSQRPIKSLPSDPKKINTRFLLYTNENQNSYQLITATDIATIKASNFNLNRKTRFIIHGFTDSGENSWLSDMCKNMFQVEKVNCICVDWKGGSKAQYSQASQNIRVVGAEVAYLVQVLSTSLNYAPENVHIIGHSLGAHTAGEAGKRLNGLVGRITGLDPAEPYFQDTPEEVRLDPSDAKFVDVIHTDISPILPSLGFGMSQKVGHMDFFPNGGKDMPGCKTGISCNHHRSIEYYHSSILNPEGFLGYPCASYDEFQESGCFPCPAKGCPKMGHFADQYPGKTNAVEQTFFLNTGASDNFTRWRYKVTVTLSGEKDPSGNINVALLGKNGNSAQYQVFKGTLKPDASYTNSIDVELNVGTIQKVTFLWKRSGISVSKPKMGASRITVQSGKDGTKYNFCSSDIVQENVEQTLSPC | 1 mM | 50 s⁻¹ | 50000 M⁻¹ s⁻¹ | 0.45 mM | 1500 s⁻¹ | 3.33e+06 M⁻¹ s⁻¹ | 10.5 mM | 750 s⁻¹ | 71400 M⁻¹ s⁻¹ | 295 mM | 70 s⁻¹ | 237 M⁻¹ s⁻¹ | 20 mM | 200 s⁻¹ | 10000 M⁻¹ s⁻¹ | 1.25 mM | 125 s⁻¹ | 100000 M⁻¹ s⁻¹ | 50 mM | 270 s⁻¹ | Km [2]: 120 mM; kcat [2]: 555 s⁻¹; kcat/Km [2]: 4630 M⁻¹ s⁻¹; kcat/Km [8]: 5400 M⁻¹ s⁻¹
4 | unnamed (protein) MEPGSKSVSRSDWQPEPHQRPITPLEPGPEKTPIAQPESKTLQGSNTQQKPASNQRPLTQQETPAQHDAESQKEPRAQQKSASQEEFLAPQKPAPQQSPYIQRVLLTQQEAASQQGPGLGKESITQQEPALRQRHVAQPGPGPGEPPPAQQEAESTPAAQAKPGAKREPSAPTESTSQETPEQSDKQTTPVQGAKSKQGSLTELGFLTKLQELSIQRSALEWKALSEWVTDSESESDVGSSSDTDSPATMGGMVAQGVKLGFKGKSGYKVMSGYSGTSPHEKTSARNHRHYQDTASRLIHNMDLRTMTQSLVTLAEDNIAFFSSQGPGETAQRLSGVFAGVREQALGLEPALGRLLGVAHLFDLDPETPANGYRSLVHTARCCLAHLLHKSRYVASNRRSIFFRTSHNLAELEAYLAALTQLRALVYYAQRLLVTNRPGVLFFEGDEGLTADFLREYVTLHKGCFYGRCLGFQFTPAIRPFLQTISIGLVSFGEHYKRNETGLSVAASSLFTSGRFAIDPELRGAEFERITQNLDVHFWKAFWNITEMEVLSSLANMASATVRVSRLLSLPPEAFEMPLTADPTLTVTISPPLAHTGPGPVLVRLISYDLREGQDSEELSSLIKSNGQRSLELWPRPQQAPRSRSLIVHFHGGGFVAQTSRSHEPYLKSWAQELGAPIISIDYSLAPEAPFPRALEECFFAYCWAIKHCALLGSTGERICLAGDSAGGNLCFTVALRAAAYGVRVPDGIMAAYPATMLQPAASPSRLLSLMDPLLPLSVLSKCVSAYAGAKTEDHSNSDQKALGMMGLVRRDTALLLRDFRLGASSWLNSFLELSGRKSQKMSEPIAEPMRRSVSEAALAQPQGPLGTDSLKNLTLRDLSLRGNSETSSDTPEMSLSAETLSPSTPSDVNFLLPPEDAGEEAEAKNELSPMDRGLGVRAAFPEGFHPRRSSQGATQMPLYSSPIVKNPFMSPLLAPDSMLKSLPPVHIVACALDPMLDDSVMLARRLRNLGQPVTLRVVEDLPHGFLTLAALCRETRQAAELCVERIRLVLTPPAGAGPSGETGAAGVDGGCGGRH | 1 mM | 190 s⁻¹ | 190000 M⁻¹ s⁻¹ | 0.4 mM | 18 s⁻¹ | 45000 M⁻¹ s⁻¹ | 15 mM | 7 s⁻¹ | 467 M⁻¹ s⁻¹ | 170 mM | 140 s⁻¹ | 824 M⁻¹ s⁻¹ | 11 mM | 210 s⁻¹ | 19100 M⁻¹ s⁻¹ | 3 mM | 31 s⁻¹ | 10300 M⁻¹ s⁻¹ | 70 mM | 105 s⁻¹ | kcat/Km [8]: 1500 M⁻¹ s⁻¹
5 | unnamed (protein) MTEPTVARPDIDPVLKMLLDTFPVTFTAADGVEVARARLRQLKTPPELLPELRIEERTVGYDGLTDIPVRVYWPPVVRDNLPVVVYYHGGGWSLGGLDTHDPVARAHAVGAQAIVVSVDYRLAPEHPYPAGIDDSWAALRWVGENAAELGGDPSRIAVAGDSAGGNISAVMAQLARDVGGPPLVFQLLWYPTTMADLSLPSFTENADAPILDRDVIDAFLAWYVPGLDISDHTMLPTTLAPGNADLSGLPPAFIGTAEHDPLRDDGACYAELLTAAGVSVELSNEPTMVHGYVNFALVVPAAAEATGRGLAALKRALHA | 0.05 mM | 185 s⁻¹ | 3.7e+06 M⁻¹ s⁻¹ |  |  |  |  |  |  |  |  |  |  |  |  |  |  |  |  |  | 
6 | unnamed (protein) MVLKQRANYLGFLIVFFTAFLVEAVPIKRQSNSTVDSLPPLIPSRTSAPSSSPSTTDPEAPAMSRNGPLPSDVETKYGMALNATSYPDSVVQAMSIDGGIRAATSQEINELTYYTTLSANSYCRTVIPGATWDCIHCDATEDLKIIKTWSTLIYDTNAMVARGDSEKTIYIVFRGSSSIRNWIADLTFVPVSYPPVSGTKVHKGFLDSYGEVQNELVATVLDQFKQYPSYKVAVTGHSLGGATALLCALDLYQREEGLSSSNLFLYTQGQPRVGDPAFANYVVSTGIPYRRTVNERDIVPHLPPAAFGFLHAGEEYWITDNSPETVQVCTSDLETSDCSNSIVPFTSVLDHLSYFGINTGLCT | 2.1 mM | 420 s⁻¹ | 200000 M⁻¹ s⁻¹ | 0.45 mM | 1080 s⁻¹ | 2.4e+06 M⁻¹ s⁻¹ | 18 mM | 200 s⁻¹ | 11100 M⁻¹ s⁻¹ | 120 mM | 950 s⁻¹ | 7920 M⁻¹ s⁻¹ | 15 mM | 5390 s⁻¹ | 359000 M⁻¹ s⁻¹ | 2 mM | 5400 s⁻¹ | 2.7e+06 M⁻¹ s⁻¹ | 35 mM | 3680 s⁻¹ | Km [2]: 210 mM; kcat [2]: 10 s⁻¹; kcat/Km [2]: 47.6 M⁻¹ s⁻¹; kcat/Km [8]: 105000 M⁻¹ s⁻¹

— the PETadex activity labels (doi:10.1016/j.bbalip.2005.11.003)
